Results as given in the RNAGym collection of RNA variant scans (doi:10.1073/pnas.2313332121).
This sample holds only a part of the variants without activity.

B1: TPR 5TU (parent)
chain: GGAUCUUCUCGAUCUAACAAAAAAGACAAAUCUGCCACAAAGCUUGAGAGCAUCUUCGGAUGCAGAGGCGGCAGCCUUCGGUGGCGCGAUAGCGCCAACGUUCUCAACUAUGACACGCAAAACGCGUGCUCCGUUGAAUGGAGUUUAUCAUG

Variants of: B1
Assay: polymerase ribozyme fitness, log enrichment relative to wild type (log ratio); higher = more active; in vitro selection for triplet polymerase activity
How it was run: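 Mutant libraries for each subunit of a heterodimeric triplet polymerase ribozyme were made by PCR and then transcribed. Each library underwent one round of in vitro selection in triplicate: annealing with a biotinylated primer, the partner subunit and triplets, frozen incubation at −7 °C, gel excision of extended constructs, streptavidin-bead capture and RT-PCR. Input and output libraries were Illumina-sequenced, and only genotypes with ≥10 input reads and ≥1 read per output were kept. Fitness is the logarithm, base 2, of genotype enrichment over wild-type enrichment, computed from inverse-variance-weighted replicate averages.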

Point of comparison: A22U G152A, “polymerase ribozyme fitness (log ratio)” value -2.39. Against it:
- A19G A89C C105G — higher, -1.99
- C38G G59C C63U G83U U90G G126U — lower, ≤ -4.2
- C93U C114A A115C — lower, ≤ -4.2
- A30G C75G U82C C99A — lower, ≤ -4.2
- U55G C76A G92A C108U — lower, ≤ -4.2
- A3U C35U U77C G84C A89G C118U — lower, ≤ -4.2
- C87U G140A — lower, -3.7
- C5G A24C A28C U55G G58A C63U C105G A137G U151G — lower, ≤ -4.2
- G46A U144G — higher, 0.469
- G83U C118A — higher, -1.04
- U53C A122G — higher, -0.671
- U33G C36A G50A A52C G84A A97C A138C — lower, -3.92
- U7A C14G U15G G88A — lower, -3.61
- U4A U6G G67C U82A U130G G143C — lower, ≤ -4.2
- G88U A97G A98U G133U A150U — lower, ≤ -4.2
- C18U C57A C95U C96A — higher, -1.46
- A12G A16G A23U C38U C87U G141C G152A — lower, ≤ -4.2
- G50A C116U A121U C132U U144G — higher, -1.82
- A47C U56G C85G C118U A121U U144G — higher, -1.81
- C99G A119C — higher, -0.2
- U31A U78A C123G U135G G140U — lower, ≤ -4.2
- A21U A26U A29G C35A G86U — lower, -4.04
- C8A C85A C87A G124A — lower, ≤ -4.2
- A40C C54U A64U U78A G88C A150G — lower, ≤ -4.2
- G58U C96U — higher, -0.236
- A39U G50A G67U G71C G84A — lower, ≤ -4.2
- A37G C87U G136U — lower, -3.7
- A24U C57G G92U A147U — higher, -0.341
- C57A G59C — higher, 0.0811
- A40U G86U — higher, -1.77
- G58C C93A G141C — within 0.2 log units, -2.47
- A49C C54U C69A G94A U151C — lower, ≤ -4.2
- A16U U31C C35U A37C C76G C105G G117A — lower, ≤ -4.2
- U44A C76U C87A C105A A107G U127A U145C G152U — lower, ≤ -4.2
- C14U A30G G48A C76G A98U U102G — lower, ≤ -4.2
- U33G U53A G59C G84A G94A C125G U144C — lower, ≤ -4.2
- C14U G34A G84U G140U — lower, ≤ -4.2
- A49U C75U G80A C96U A97C U145A U146G U148G — lower, ≤ -4.2
- C35U A39U G50A C51U G83A C123U — lower, ≤ -4.2
- A37U A39G A40U C93U C105G A110U A138U — lower, ≤ -4.2
- A49U C75A A91G — lower, -4.15
- C35U A64U C116A G140C — lower, -3.97
- C14G G34A G128A G141C — lower, -3.91
- A20C G92U C125A — higher, -0.863
- A30U U45G G50A A66G A113G G152A — lower, ≤ -4.2
- A21U G92C — higher, 0.0736
- A37U G65A A66U U77G G84A — lower, ≤ -4.2
- A24U A47U C96U C116A G133A C149G — lower, ≤ -4.2
- U31G G92U U127G — lower, -4.07
- C85U G126C — higher, -1.23
- A47G G59C G62U G83A C87U U101G A138U — lower, ≤ -4.2
- G94A U102G G133A — lower, ≤ -4.2
- A19G A39C G92A C116A — lower, ≤ -4.2
- U6G U45C C76A C93G C103A — lower, ≤ -4.2
- A60C G67U C76A C96U A107G C125U — lower, ≤ -4.2
- U7A C96U — lower, -2.73
- U15G U139A — lower, ≤ -4.2
- A49C C54A — lower, ≤ -4.2
- A16C A37C A39C C85U — lower, ≤ -4.2
- A49C G58A — lower, -4.08
- U4A C8U A29C A41C G58A C75A C79U G83A — lower, ≤ -4.2
- A16U C32A C35G C96A G124C U144C — lower, ≤ -4.2
- A19U U53A G71C G84A C96U A97U C108G G140U — lower, ≤ -4.2
- U6A A12U G50A C149A — lower, ≤ -4.2
- A3U A37G G59U G86A C99A U130C G141U — lower, ≤ -4.2
- U53A G68U A73G U134G A138C — lower, ≤ -4.2
- C51U G94U C114A G140A — lower, ≤ -4.2
- A21C A39U C95G A113U C149U A150G — lower, ≤ -4.2
- A21U U33G G59C C72G A89C C96A A115C U146C — lower, ≤ -4.2
- C35U A107U — lower, -4.03
- A17C C85G C149G — lower, ≤ -4.2
- A49C U148A — lower, ≤ -4.2
- U13G A23U C35A C93U C99U U127G — lower, ≤ -4.2
- G48A C85U C96A C116G — within 0.2 log units, -2.37
- A120G U127C — within 0.2 log units, -2.22
- C10G G84U — lower, -3.9
- A12G U55A G84A G117U — higher, -0.697
- U146A U148A — lower, -3.37
- C32A C69A U145C — lower, -3.25
- C36U C95G — lower, -2.94
- G62A C85U G86U C87G — lower, ≤ -4.2
- U44G G65A G68A — lower, ≤ -4.2
- G46A G124C — higher, -1.46
- A20U G88C — lower, -3.85
- U4G A73G G92U A107U A122U — lower, -3.96
- C8A A17G A21U C38U G86A C99G G126U U139G — lower, ≤ -4.2
- C14U C51U U135C — lower, -3.66
- G65A — higher, -1.04
- C85G G112C A138U C149A — lower, ≤ -4.2
- C57U C95U U101C — higher, -0.863
- G46C A60U — higher, -1.74
- G50A C116U — higher, -1.34
- C75G — lower, -3.24
- A12U G46U G71U A142G — lower, ≤ -4.2
- G11A U55G U56A U102A — lower, -3.42
- A20G U53G G74A C93A — lower, ≤ -4.2
- A12G A22C U101G U127C — higher, -1.93
- U6A U7G U13A C35A C54A G71U A91U U101A U127C G141U — lower, ≤ -4.2
- C18G C54U U61G C87U C95U — lower, -3.85
- U82A C108U — the same, -2.39
- A30C C38U G74A — lower, ≤ -4.2
- A40G U61C G92U U145G — lower, ≤ -4.2
- A19U C69A A98U G140C — lower, ≤ -4.2
- G42C G59A C93G A106C — lower, ≤ -4.2
- C5G A41C U134C — higher, -1.61
- G88A U109C A142C — lower, -4.19
- C5U C18U C85A — higher, -0.0024
- A12U G117C U134C — higher, -0.516
- C51A C57A C95A G126A A147G — lower, ≤ -4.2
- A12U C14G A20G A73G U77A G86U C96U G117U — lower, ≤ -4.2
- G59C G81U C95U G141A — lower, -3.32
- U7G A21G U61G C85U C87A A106C — lower, ≤ -4.2
- U55G C125G U151G — lower, ≤ -4.2
- G11A A137C C149U — lower, ≤ -4.2
- G100U C125G — lower, -4.05
- G83A A119C A120U C149U — higher, -1.37
- U31G C36U U53A G58C C69U G83U C118A U134A G143C G152U — lower, ≤ -4.2
- U6G A39G A49C — lower, ≤ -4.2
- U139A U146A — lower, ≤ -4.2
- A60C G81U C87U — higher, -2.07
- A21G A40C — higher, 0.803
- A12U G58C C95A — higher, -1.44
- A19C U56A C85G U148A — lower, -3.88
- G67C C125G — lower, ≤ -4.2
- A24G G83C U101G C123A G141U — lower, ≤ -4.2
- G25A C79G U90A U104A G117U — lower, ≤ -4.2
- C85A G133C U134G U145G — lower, ≤ -4.2
- G128A U139G — lower, -4.08
- U9G G59U G68C G84U C105A G124A G133C A142C — lower, ≤ -4.2
- C54U G141A — higher, -0.888
- G58U C123U G124C — higher, -0.593
- C18U G92U A97G U146A — higher, -2.16
- A12C A119G — higher, -0.0231
- A22C A89G C95A C103A G124U — lower, -4
- A3U A24U A52U A60G G92U — within 0.2 log units, -2.23
- C38G G92A — lower, -4.14
- G25C A64U C125G — lower, ≤ -4.2
- A3C U15A C85U — higher, 0.611
- U7G A17U A52C C85U C116A — lower, -3.83
- G11C A47U G68C C85A C95A A106G U134C A150G — lower, ≤ -4.2
- C57A C114U A120G C129U — lower, ≤ -4.2
- A73G G83C C95G A120C A122G — lower, ≤ -4.2
- A52G G83C C129A — lower, -2.88
- A73G C87U G92U A122U C131A — lower, -4.1
- A52U C57G G58A C95U C123U G126U A138U — lower, ≤ -4.2
- C57U G84U — within 0.2 log units, -2.27
- C85U C93U — higher, -1.93
- A24U G42A U53A U90G A107U C108A U145C — lower, ≤ -4.2
- G94C C131U U135G G152A — lower, -3.32
- A91G G141C — lower, -2.86
- C35U G83C — higher, -1.43
- A47C G83A A122C — higher, -1.08
- U45A A52U C85A U139G — lower, ≤ -4.2
- G94C G140A — lower, -3.95
- C14A A22G G86U G140C — lower, ≤ -4.2
- A28U C96A A121U U148C — lower, ≤ -4.2
- U4G A12C U15A G80C U90G G126C G143C — lower, ≤ -4.2
- U53A C57G C75G G83C U102A A121U U144A U145C — lower, ≤ -4.2
- A52U G86C G88A C105A G141U — lower, ≤ -4.2
- G50A G58U C95U C118G — higher, -1.92
- C10U C96G A119U — lower, ≤ -4.2
- C10G A21G G59A — lower, ≤ -4.2
- A12G A28C C116A A147C — lower, ≤ -4.2
- A3U C72U C79G G92U — lower, ≤ -4.2
- C8U A40U — lower, -3.42
- U77A G84A C85U — lower, ≤ -4.2
